Test results published in US20160376353A1 (DECIMMUNE THERAPEUTICS, published 2016).
Ends that are not written are not given here.

T1: N2 peptide (non-muscle myosin neo-epitope N2 12mer sequence)
T1 construct: also called N2 12-mer peptide
T1 peptide: LMKNMDPLNDNV

T2: Biotin-labeled N2 peptide (also: biotin label, position not given here)
T2 construct: also called immobilized N2
T2 peptide: LMKNMDPLNDNV

B1: Chimeric 21G6, human heavy chain constant region IgG1 (wild type) (antibody, V domains shown)
VH: QVQLQQPGAELVKPGASVKLSCKASGYTFTSYYMYWVKQRPGQGLEWIGGINPSNGGTNFNEKFKSKATLTVDKSSSTAYMQLSSLTSEDSAVYYCTRWGYDREWFAYWGQGTLVTVSA
VL: DIVMTQAAPSVPVTPGESVSISCRSSKSLLHSNGNTYLYWFLQRPGQSPQVLIYRMSNLASGVPDRFSGSGSGTAFTLRISRVEAEDVGVYYCMQHLEYPFTFGSGTKLEIKR
notes: also called CHIgG1 / Ch; ch21G6 IgG1
B2: H2-21G6 / L2-21G6, wild type human IgG1 (antibody, V domains shown)
VH: QVQLVQSGAEVKKPGASVKVSCKASGYTFTSYYMYWVRQAPGQGLEWIGGINPSNGGTNFNEKFKSKATMTVDKSTSTAYMELRSLRSDDSAVYYCTRWGYDREWFAYWGQGTLVTVSS
VL: DIVMTQSPLSLPVTPGEPASISCRSSKSLLHSNGNTYLYWFLQKPGQSPQLLIYRMSNLASGVPDRFSGSGSGTDFTLKISRVEAEDVGVYYCMQHLEYPFTFGQGTKLEIKR
notes: also called H2/L2
B3: H2-21G6 / L2-21G6, human IgG1 N297Q (antibody, V domains shown)
VH: QVQLVQSGAEVKKPGASVKVSCKASGYTFTSYYMYWVRQAPGQGLEWIGGINPSNGGTNFNEKFKSKATMTVDKSTSTAYMELRSLRSDDSAVYYCTRWGYDREWFAYWGQGTLVTVSS
VL: DIVMTQSPLSLPVTPGEPASISCRSSKSLLHSNGNTYLYWFLQKPGQSPQLLIYRMSNLASGVPDRFSGSGSGTDFTLKISRVEAEDVGVYYCMQHLEYPFTFGQGTKLEIKR
notes: also called H2/L2 N297Q
B4: H3-21G6 / L1-21G6, wild type human IgG1 (antibody, V domains shown)
VH: QVQLVQSGAEVKKPGSSVKVSCKASGYTFTSYYMYWVRQAPGQGLEWIGGINPSNGGTNFNEKFKSKATITVDKSTSTAYMELSSLRSEDTAVYYCTRWGYDREWFAYWGQGTLVTVSS
VL: DIVMTQSPATLSVSPGERATISCRSSKSLLHSNGNTYLYWFQQKPGQPPKVLIYRMSNLASGVPARFSGSGSGTDFTLTISSVEPEDFATYYCMQHLEYPFTFGGGTKLEIKR
notes: also called H3/L1
B5: H3-21G6 / L1-21G6, human IgG1 N297Q (antibody, V domains shown)
VH: QVQLVQSGAEVKKPGSSVKVSCKASGYTFTSYYMYWVRQAPGQGLEWIGGINPSNGGTNFNEKFKSKATITVDKSTSTAYMELSSLRSEDTAVYYCTRWGYDREWFAYWGQGTLVTVSS
VL: DIVMTQSPATLSVSPGERATISCRSSKSLLHSNGNTYLYWFQQKPGQPPKVLIYRMSNLASGVPARFSGSGSGTDFTLTISSVEPEDFATYYCMQHLEYPFTFGGGTKLEIKR
notes: also called H3/L1 N297Q
B6: H1-21G6 / L3-21G6, wild type human IgG1 (antibody, V domains shown)
VH: QVQLVQSGAEVVKPGASVKLSCKASGYTFTSYYMYWVKQAPGQGLEWIGGINPSNGGTNFNEKFKSKATLTVDKSASTAYMELSSLRSEDTAVYYCTRWGYDREWFAYWGQGTLVTVSS
VL: DIVMTQTPLSLSYTPGQPASISCRSSKSLLHSNGNTYLYWFLQKPGQSPQLLIYRMSNLASGVPDRFSGSGSGTDFTLKISRVEAEDVGVYYCMQHLEYPFTFGQGTKLEIKR
notes: also called H1/L3
B7: H3-21G6 / L3-21G6, wild type human IgG1 (antibody, V domains shown)
VH: QVQLVQSGAEVKKPGSSVKVSCKASGYTFTSYYMYWVRQAPGQGLEWIGGINPSNGGTNFNEKFKSKATITVDKSTSTAYMELSSLRSEDTAVYYCTRWGYDREWFAYWGQGTLVTVSS
VL: DIVMTQTPLSLSYTPGQPASISCRSSKSLLHSNGNTYLYWFLQKPGQSPQLLIYRMSNLASGVPDRFSGSGSGTDFTLKISRVEAEDVGVYYCMQHLEYPFTFGQGTKLEIKR
notes: also called H3/L3
B8: H1-21G6 / L1-21G6, wild type human IgG1 (antibody, V domains shown)
VH: QVQLVQSGAEVVKPGASVKLSCKASGYTFTSYYMYWVKQAPGQGLEWIGGINPSNGGTNFNEKFKSKATLTVDKSASTAYMELSSLRSEDTAVYYCTRWGYDREWFAYWGQGTLVTVSS
VL: DIVMTQSPATLSVSPGERATISCRSSKSLLHSNGNTYLYWFQQKPGQPPKVLIYRMSNLASGVPARFSGSGSGTDFTLTISSVEPEDFATYYCMQHLEYPFTFGGGTKLEIKR
notes: also called H1/L1
B9: H2-21G6 / L3-21G6, human IgG1 N297Q (antibody, V domains shown)
VH: QVQLVQSGAEVKKPGASVKVSCKASGYTFTSYYMYWVRQAPGQGLEWIGGINPSNGGTNFNEKFKSKATMTVDKSTSTAYMELRSLRSDDSAVYYCTRWGYDREWFAYWGQGTLVTVSS
VL: DIVMTQTPLSLSYTPGQPASISCRSSKSLLHSNGNTYLYWFLQKPGQSPQLLIYRMSNLASGVPDRFSGSGSGTDFTLKISRVEAEDVGVYYCMQHLEYPFTFGQGTKLEIKR
notes: also called H2/L3 N297Q
B10: H2-21G6 / L3-21G6, wild type human IgG1 (antibody, V domains shown)
VH: QVQLVQSGAEVKKPGASVKVSCKASGYTFTSYYMYWVRQAPGQGLEWIGGINPSNGGTNFNEKFKSKATMTVDKSTSTAYMELRSLRSDDSAVYYCTRWGYDREWFAYWGQGTLVTVSS
VL: DIVMTQTPLSLSYTPGQPASISCRSSKSLLHSNGNTYLYWFLQKPGQSPQLLIYRMSNLASGVPDRFSGSGSGTDFTLKISRVEAEDVGVYYCMQHLEYPFTFGQGTKLEIKR
notes: also called H2/L3
B11: H1-21G6 / L2-21G6, wild type human IgG1 (antibody, V domains shown)
VH: QVQLVQSGAEVVKPGASVKLSCKASGYTFTSYYMYWVKQAPGQGLEWIGGINPSNGGTNFNEKFKSKATLTVDKSASTAYMELSSLRSEDTAVYYCTRWGYDREWFAYWGQGTLVTVSS
VL: DIVMTQSPLSLPVTPGEPASISCRSSKSLLHSNGNTYLYWFLQKPGQSPQLLIYRMSNLASGVPDRFSGSGSGTDFTLKISRVEAEDVGVYYCMQHLEYPFTFGQGTKLEIKR
notes: also called H1/L2
B12: H2-21G6 / L1-21G6, wild type human IgG1 (antibody, V domains shown)
VH: QVQLVQSGAEVKKPGASVKVSCKASGYTFTSYYMYWVRQAPGQGLEWIGGINPSNGGTNFNEKFKSKATMTVDKSTSTAYMELRSLRSDDSAVYYCTRWGYDREWFAYWGQGTLVTVSS
VL: DIVMTQSPATLSVSPGERATISCRSSKSLLHSNGNTYLYWFQQKPGQPPKVLIYRMSNLASGVPARFSGSGSGTDFTLTISSVEPEDFATYYCMQHLEYPFTFGGGTKLEIKR
notes: also called H2/L1
B13: H3-21G6 / L2-21G6, wild type human IgG1 (antibody, V domains shown)
VH: QVQLVQSGAEVKKPGSSVKVSCKASGYTFTSYYMYWVRQAPGQGLEWIGGINPSNGGTNFNEKFKSKATITVDKSTSTAYMELSSLRSEDTAVYYCTRWGYDREWFAYWGQGTLVTVSS
VL: DIVMTQSPLSLPVTPGEPASISCRSSKSLLHSNGNTYLYWFLQKPGQSPQLLIYRMSNLASGVPDRFSGSGSGTDFTLKISRVEAEDVGVYYCMQHLEYPFTFGQGTKLEIKR
notes: also called H3/L2
B14: H1-21G6 / L1-21G6, human IgG1 N297Q (antibody, V domains shown)
VH: QVQLVQSGAEVVKPGASVKLSCKASGYTFTSYYMYWVKQAPGQGLEWIGGINPSNGGTNFNEKFKSKATLTVDKSASTAYMELSSLRSEDTAVYYCTRWGYDREWFAYWGQGTLVTVSS
VL: DIVMTQSPATLSVSPGERATISCRSSKSLLHSNGNTYLYWFQQKPGQPPKVLIYRMSNLASGVPARFSGSGSGTDFTLTISSVEPEDFATYYCMQHLEYPFTFGGGTKLEIKR
notes: also called H1/L1 N297Q
B15: H3-21G6 / L2-21G6 (Table 2, constant region not stated) (antibody, V domains shown)
VH: QVQLVQSGAEVKKPGSSVKVSCKASGYTFTSYYMYWVRQAPGQGLEWIGGINPSNGGTNFNEKFKSKATITVDKSTSTAYMELSSLRSEDTAVYYCTRWGYDREWFAYWGQGTLVTVSS
VL: DIVMTQSPLSLPVTPGEPASISCRSSKSLLHSNGNTYLYWFLQKPGQSPQLLIYRMSNLASGVPDRFSGSGSGTDFTLKISRVEAEDVGVYYCMQHLEYPFTFGQGTKLEIKR
notes: human kappa light chain; also called H3/L2
B16: H3-21G6 / L3-21G6 (Table 2, constant region not stated) (antibody, V domains shown)
VH: QVQLVQSGAEVKKPGSSVKVSCKASGYTFTSYYMYWVRQAPGQGLEWIGGINPSNGGTNFNEKFKSKATITVDKSTSTAYMELSSLRSEDTAVYYCTRWGYDREWFAYWGQGTLVTVSS
VL: DIVMTQTPLSLSYTPGQPASISCRSSKSLLHSNGNTYLYWFLQKPGQSPQLLIYRMSNLASGVPDRFSGSGSGTDFTLKISRVEAEDVGVYYCMQHLEYPFTFGQGTKLEIKR
notes: human kappa light chain; also called H3/L3
B17: H4-21G6 / L2-21G6 (Table 3B, constant region not stated) (antibody, V domains shown)
VH: QVQLVQSGAEVKKPGASVKVSCKASGYTFTSYYMYWVRQAPGQGLEWMGGINPSNGGTNFNEKFKSRVTMTTDTSTSTAYMELRSLRSDDTAVYYCTRWGYDREWFAYWGQGTLVTVSS
VL: DIVMTQSPLSLPVTPGEPASISCRSSKSLLHSNGNTYLYWFLQKPGQSPQLLIYRMSNLASGVPDRFSGSGSGTDFTLKISRVEAEDVGVYYCMQHLEYPFTFGQGTKLEIKR
notes: human kappa light chain; also called H4/L2
B18: H2-21G6 / L1-21G6 (Table 2, constant region not stated) (antibody, V domains shown)
VH: QVQLVQSGAEVKKPGASVKVSCKASGYTFTSYYMYWVRQAPGQGLEWIGGINPSNGGTNFNEKFKSKATMTVDKSTSTAYMELRSLRSDDSAVYYCTRWGYDREWFAYWGQGTLVTVSS
VL: DIVMTQSPATLSVSPGERATISCRSSKSLLHSNGNTYLYWFQQKPGQPPKVLIYRMSNLASGVPARFSGSGSGTDFTLTISSVEPEDFATYYCMQHLEYPFTFGGGTKLEIKR
notes: human kappa light chain; also called H2/L1

Target: T1, N2 peptide (non-muscle myosin …)
Assay: SPR (BIACORE X100), antibody captured by anti-human Fc, N2 peptide in solution
Description: (§1) The remaining sequences represent the germline sequences with the highest homology that encode productive antibody. All of the humanized sequences maintain the murine 21G6 CDR regions which are shown inside the boxes in FIG. 1. The humanized variable regions were cloned into a vector containing wild type human IgG1, human IgG1 containing a mutation at amino acid 297 (Asn 297 to Q297), human IgG4 containing a mutation at amino acid 228 (serine to proline) and human kappa light chain. Each antibody (heavy and light) combination was expressed by transient co-transfection in 293A cells (in the presence of low Ig serum). The antibody containing supernatants were collected and analyzed for binding to the N2 peptide by ELISA and BIACORE™ X100 system. All experiments were performed using a BIACORE™ X100 system. For antibody capture experiments, a CM5 chip was prepared by 10 ul/minute injection of EDC/NHS (N-ethyl-N′-(3-dimethylaminopropyl) carbodiimide (EDC), N-hydroxysuccinimide (NHS) for 7 minutes, followed by a 10 ul/minute injection of anti-human Fc (GE Lifesciences) at a concentration of 25 ug/ml in sodium acetate at pH 5 for 3 minutes. Ethanolamine-HCl was injected for 7 minutes at 10 ul/minute. The chimeric or humanized antibodies were captured onto flow cell 2 and N2 peptide at varying concentrations was flowed over flow cells 1 and 2 at a rate of 30 ul/minute with a contact time of 120 seconds and a dissociation period of 120 seconds. Complete removal of captured antibody was accomplished by regeneration with 3M MgCl2 for 30 seconds at a flow rate of 10 ul/minute. For peptide immobilized experiments, a CM5 chip was prepared by 10 ul/minute injection of EDC/NHS (N-ethyl-N′-(3-dimethylaminopropyl) carbodiimide (EDC), N-hydroxysuccinimide (NHS) for 7 minutes, followed by a 10 ul/minute injection of NEUTRAVIDIN® protein (ThermoFisher Pierce) at a concentration of 5 ug/ml in sodium acetate, pH 5 to an immobilization response of 100-200RU. Ethanolamine-HCl was injected for 7 minutes at 10 ul/minute. Biotin-labeled N2 peptide was captured on flow channel 2 with the goal of an experimental Rmax of about 50-100RU. Purified chimeric or humanized antibodies were flowed over both flow channels at a rate of 30 ul/min for a contact time of 120 seconds and allowed to dissociate for 600 seconds.

B1 and B2 cannot be ordered by Kd: 6 to 7 µM for the first, 6.4 to 8.4 µM for the second.

First: B3
Second: B4
The Kd of the first is lower: 3.1 to 3.7 µM for the first, 7.9 µM for the second. The first binds more tightly here.

B5 and B6 are within 1.5-fold of each other in Kd: 20 µM for the first, 20.9 µM for the second.

First: B7
Second: B8
The Kd of the first is higher: 9.38 µM for the first, 6.6 to 7.7 µM for the second. The second binds more tightly here.

B9 and B10 are within 1.5-fold of each other in Kd: 8.8 µM for the first, 9.56 µM for the second.

First: B11
Second: B12
The Kd of the first is higher: 17 µM for the first, 9.8 to 11 µM for the second. The second binds more tightly here.

B13 and B14 are within 1.5-fold of each other in Kd: 11.5 µM for the first, 9 µM for the second.

Target: T2, Biotin-labeled N2 peptide
Assay: SPR (BIACORE X100), biotin-N2 peptide on NeutrAvidin chip, antibody in solution; kd/ka (monovalent)
Description: as §1

B15 and B16 are within 1.5-fold of each other in Kd: 0.64 µM for the first, 0.9 µM for the second.

Going from B17 to B18, the Kd rises from 0.1 µM to 0.66 µM (6.6-fold).
